From publication PMC8604728

B1: unnamed (parent)
chain 1: DYMGWMDF
chain 2: MDVVDSLLVNGSNITPPCELGLENETLFCLDQPRPSKEWQPAVQILLYSLIFLLSVLGNTLVITVLIRNKRMRTVTNIFLLSLAVSDLMLCLFCMPFNLIPNLLKDFIFGSAVCKTTTYFMGTSVSVSTFNLVAISLERYGAICKPLQSRVWQTKSHALKVIAATWCLSFTIMTPYPIYSNLVPFTKNNNQTANMCRFLLPNDVMQQSWHTFLLLILFLIPGIVMMVAYGLISLELYQGIKFEASQKKSAKERKPSTTSSGKYEDSDGCYLQKTRPPRKLELRQLSTGSSSRANRIRSNSSAANLMAKKRVIRMLIVIVVLFFLCWMPIFSANAWRAYDTASAERRLSGTPISFILLLSYTSSCVNPIIYCFMNKRFRLGFMATFPCCPNPGPPGARGEVGEEEEGGTTGASLSRFSYSHMSASVPPQ

Variants of: B1
Experiment: radiolabeled ligand-binding assay (competition with unlabeled CCK-8)
Conditions: upper plateau of the fitted competition curve at the lowest CCK-8 concentration (log [CCK-8] = -12), read off a plot

Q: For chain 2 MDVVDSLLVNGSNITPPCELGLENETLFCLDQPRPSKEWQPAVQILLYSLIFLLSVLGNTLVITVLIRNKRMRTVTNIFLLSLAVSDLMLCLFCMPFNLIPNLLKDFIFGSAVCKTTTYFMGTSVSVSTFNLVAISLERYGAICKPLQSRVWQTKSHALKVIAATWCLSFTIMTPYPIYSNLVPFTKNNNQTANMCRFLLPNDVMQQSWHTFLLLILFLIPGIVMMVAYGLISLELYQGIKFEASQKKSAKERKPSTTSSGKYEDSDGCYLQKTRPPRKLELRQLSTGSSSRANRIRSNSSAANLMAKKRVIRMLIVIVVLFFLCWMPIFSANAWRAYDTASAERRLSGTPISFILLLSATSSCVNPIIYCFMNKRFRLGFMATFPCCPNPGPPGARGEVGEEEEGGTTGASLSRFSYSHMSASVPPQ [chain 2 Y360A], which percent of parent is on record?
A: 28 % WT

Q: chain 2 MDVVDSLLVNGSNITPPCELGLENETLFCLDQPRPSKEWQPAVQILLYSLIFLLSVLGNTLVITVLIRNKRMRTVTNIFLLSLAVSDLMLCLFCMPFNLIPNLLKDFIFGSAVCKTTTYFMGTSVSVSTFNLVAISLERYGAICKPLQSRVWQTKSHALKVIAATWCLSFTIMTPYPIYSNLVPFTKNNNQTANMCRFLLPNDVMQQSWATFLLLILFLIPGIVMMVAYGLISLELYQGIKFEASQKKSAKERKPSTTSSGKYEDSDGCYLQKTRPPRKLELRQLSTGSSSRANRIRSNSSAANLMAKKRVIRMLIVIVVLFFLCWMPIFSANAWRAYDTASAERRLSGTPISFILLLSYTSSCVNPIIYCFMNKRFRLGFMATFPCCPNPGPPGARGEVGEEEEGGTTGASLSRFSYSHMSASVPPQ [chain 2 H210A] was tested. Which percent of parent did it give?
A: 70 % WT

Q: With chain 2 MDVVDSLLVNGSNITPPCELGLENETLFCLDQPRPSKEWQPAVQILLYSLIFLLSVLGNTLVITVLIRNKRMRTVTNIFLLSLAVSDLMLCLFCMPFNLIPNLLKDFIFGSAVCKTTTYFMGTSVSVSTFNLVAISLERYGAICKPLQSRVWQTKSHALKVIAATWCLSFTIMTPYPIYSNLVPATKNNNQTANMCRFLLPNDVMQQSWHTFLLLILFLIPGIVMMVAYGLISLELYQGIKFEASQKKSAKERKPSTTSSGKYEDSDGCYLQKTRPPRKLELRQLSTGSSSRANRIRSNSSAANLMAKKRVIRMLIVIVVLFFLCWMPIFSANAWRAYDTASAERRLSGTPISFILLLSYTSSCVNPIIYCFMNKRFRLGFMATFPCCPNPGPPGARGEVGEEEEGGTTGASLSRFSYSHMSASVPPQ [chain 2 F185A] as the variant, how does the percent of parent read?
A: 15 % WT

Q: How did the percent of parent turn out when chain 2 MDVVDSLLVNGSNITPPCELGLENETLFCLDQPRPSKEWQPAVQILLYSLIFLLSVLGNTLVITVLIRNKRMRTVTNIFLLSLAVSDLMLCLFCMPFNLIPNLLKDFIFGSAVCKTTTYFMGTSVSVSTFNLVAISLERYGAICKPLQSRVWQTKSHALKVIAATWCLSFTIMTPYPIYSNLVPFTKNNNQTANACRFLLPNDVMQQSWHTFLLLILFLIPGIVMMVAYGLISLELYQGIKFEASQKKSAKERKPSTTSSGKYEDSDGCYLQKTRPPRKLELRQLSTGSSSRANRIRSNSSAANLMAKKRVIRMLIVIVVLFFLCWMPIFSANAWRAYDTASAERRLSGTPISFILLLSYTSSCVNPIIYCFMNKRFRLGFMATFPCCPNPGPPGARGEVGEEEEGGTTGASLSRFSYSHMSASVPPQ [chain 2 M195A] was run?
A: 30 % WT

Q: Which percent of parent does the source give for chain 2 MDVVDSLLVNGSNITPPCELGLENETLFCLDQPRPSKEWQPAVQILLYSLIFLLSVLGNTLVITVLIRNKRMRTVTNIFLLSLAVSDLMLCLFCMPFNLIPNLLKDFIFGSAVCKTTTYFMGTSASVSTFNLVAISLERYGAICKPLQSRVWQTKSHALKVIAATWCLSFTIMTPYPIYSNLVPFTKNNNQTANMCRFLLPNDVMQQSWHTFLLLILFLIPGIVMMVAYGLISLELYQGIKFEASQKKSAKERKPSTTSSGKYEDSDGCYLQKTRPPRKLELRQLSTGSSSRANRIRSNSSAANLMAKKRVIRMLIVIVVLFFLCWMPIFSANAWRAYDTASAERRLSGTPISFILLLSYTSSCVNPIIYCFMNKRFRLGFMATFPCCPNPGPPGARGEVGEEEEGGTTGASLSRFSYSHMSASVPPQ [chain 2 V125A] here?
A: 75 % WT

Q: Which percent of parent does the source give for chain 2 MDVVDSLLVNGSNITPPCELGLENETLFCLDQPRPSKEWQPAVQILLYSLIFLLSVLGNTLVITVLIRNKRMRTVTNIFLLSLAVSDLMLCLFCMPFNLIPNLLADFIFGSAVCKTTTYFMGTSVSVSTFNLVAISLERYGAICKPLQSRVWQTKSHALKVIAATWCLSFTIMTPYPIYSNLVPFTKNNNQTANMCRFLLPNDVMQQSWHTFLLLILFLIPGIVMMVAYGLISLELYQGIKFEASQKKSAKERKPSTTSSGKYEDSDGCYLQKTRPPRKLELRQLSTGSSSRANRIRSNSSAANLMAKKRVIRMLIVIVVLFFLCWMPIFSANAWRAYDTASAERRLSGTPISFILLLSYTSSCVNPIIYCFMNKRFRLGFMATFPCCPNPGPPGARGEVGEEEEGGTTGASLSRFSYSHMSASVPPQ [chain 2 K105A] here?
A: 50 % WT

Q: Which percent of parent does the source give for chain 2 MDVVDSLLVNGSNITPPCELGLENETLFCLDQPRPSKEWQPAVQILLYSLIFLLSVLGNTLVITVLIRNKRMRTVTNIFLLSLAVSDLMLCLFCMPFNLIPNLLKDFIFGSAVCKTTAYFMGTSVSVSTFNLVAISLERYGAICKPLQSRVWQTKSHALKVIAATWCLSFTIMTPYPIYSNLVPFTKNNNQTANMCRFLLPNDVMQQSWHTFLLLILFLIPGIVMMVAYGLISLELYQGIKFEASQKKSAKERKPSTTSSGKYEDSDGCYLQKTRPPRKLELRQLSTGSSSRANRIRSNSSAANLMAKKRVIRMLIVIVVLFFLCWMPIFSANAWRAYDTASAERRLSGTPISFILLLSYTSSCVNPIIYCFMNKRFRLGFMATFPCCPNPGPPGARGEVGEEEEGGTTGASLSRFSYSHMSASVPPQ [chain 2 T118A] here?
A: 110 % WT

Q: chain 2 MDVVDSLLVNGSNITPPCELGLENETLFCLDQPRPSKEWQPAVQILLYSLIFLLSVLGNTLVITVLIRNKRMRTVTNIFLLSLAVSDLMLCLFCMPFNLIPNLLKDFIFGSAVCKTTTYFAGTSVSVSTFNLVAISLERYGAICKPLQSRVWQTKSHALKVIAATWCLSFTIMTPYPIYSNLVPFTKNNNQTANMCRFLLPNDVMQQSWHTFLLLILFLIPGIVMMVAYGLISLELYQGIKFEASQKKSAKERKPSTTSSGKYEDSDGCYLQKTRPPRKLELRQLSTGSSSRANRIRSNSSAANLMAKKRVIRMLIVIVVLFFLCWMPIFSANAWRAYDTASAERRLSGTPISFILLLSYTSSCVNPIIYCFMNKRFRLGFMATFPCCPNPGPPGARGEVGEEEEGGTTGASLSRFSYSHMSASVPPQ [chain 2 M121A] was tested. Which percent of parent did it give?
A: 230 % WT
